{
  "source": "patent US20210275641A1",
  "about": "(SYNTHEKINE, published 2021)",
  "data": [
    {"target": "T1, human high affinity trimeric IL-2 receptor (CD25/CD122/CD132) (human, UniProt P01589 22-272; P14784 27-551; P31785 23-369)", "T1 sequence 1": "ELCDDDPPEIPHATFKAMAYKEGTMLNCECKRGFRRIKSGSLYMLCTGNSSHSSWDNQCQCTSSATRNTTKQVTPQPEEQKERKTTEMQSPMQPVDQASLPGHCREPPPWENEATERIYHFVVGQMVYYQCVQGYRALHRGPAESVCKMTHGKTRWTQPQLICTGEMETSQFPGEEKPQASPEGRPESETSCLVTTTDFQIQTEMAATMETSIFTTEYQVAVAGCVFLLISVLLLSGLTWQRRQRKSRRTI", "T1 sequence 2": "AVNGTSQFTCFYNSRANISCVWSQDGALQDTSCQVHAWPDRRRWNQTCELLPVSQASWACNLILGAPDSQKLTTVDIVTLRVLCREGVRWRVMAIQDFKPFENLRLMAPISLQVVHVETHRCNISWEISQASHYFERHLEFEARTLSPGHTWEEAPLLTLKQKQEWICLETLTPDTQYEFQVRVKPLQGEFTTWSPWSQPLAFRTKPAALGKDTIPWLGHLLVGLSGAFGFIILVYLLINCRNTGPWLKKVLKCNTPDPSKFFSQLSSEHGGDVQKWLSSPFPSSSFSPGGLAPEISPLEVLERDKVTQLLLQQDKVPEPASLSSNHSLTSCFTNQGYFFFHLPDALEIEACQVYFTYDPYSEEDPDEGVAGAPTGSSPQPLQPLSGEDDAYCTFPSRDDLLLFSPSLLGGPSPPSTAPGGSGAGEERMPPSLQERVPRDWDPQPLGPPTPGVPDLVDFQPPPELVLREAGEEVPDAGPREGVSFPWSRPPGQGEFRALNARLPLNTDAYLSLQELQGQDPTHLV", "T1 sequence 3": "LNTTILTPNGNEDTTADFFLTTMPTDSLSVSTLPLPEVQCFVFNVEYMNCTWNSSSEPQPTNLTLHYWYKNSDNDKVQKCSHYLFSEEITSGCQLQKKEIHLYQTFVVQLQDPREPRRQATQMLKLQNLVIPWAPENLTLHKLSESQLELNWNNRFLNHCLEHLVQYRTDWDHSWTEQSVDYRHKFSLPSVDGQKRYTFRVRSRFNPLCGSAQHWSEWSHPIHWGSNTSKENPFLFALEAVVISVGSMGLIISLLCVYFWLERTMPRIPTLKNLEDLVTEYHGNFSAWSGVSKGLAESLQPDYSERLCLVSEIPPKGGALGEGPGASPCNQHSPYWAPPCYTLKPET", "assay": "cell-based or functional assay", "values": [
      {"binder": "hIL2 mutein REH (L18R, Q22E, Q126H) (ligand) APTSSSTKKTQLQLEHLRLDLEMILNGINNYKNPKLTRMLTFKFYMPKKATELKHLQCLEEELKPLEEVLNLAQSKNFHLRPRDLISNINVIVLELKGSETTFMCEYADETATIVEFLNRWITFCHSIISTLT", "pSTAT5 ratio YT CD25/YT, dilution factor 2, lower table": 0.8, "pSTAT5 ratio YT CD25/YT, dilution factor 2, upper table": 0.9, "pSTAT5 ratio YT CD25/YT, dilution factor 4, lower table": 0.9, "pSTAT5 ratio YT CD25/YT, dilution factor 4, upper table": 1, "pSTAT5 ratio YT CD25/YT, dilution factor 8, lower table": 1, "pSTAT5 ratio YT CD25/YT, dilution factor 8, upper table": 1.1, "pSTAT5 ratio YT CD25/YT, dilution factor 16, lower table": 1.3, "pSTAT5 ratio YT CD25/YT, dilution factor 16, upper table": 1.3, "pSTAT5 ratio YT CD25/YT, dilution factor 32, lower table": 1.6, "pSTAT5 ratio YT CD25/YT, dilution factor 32, upper table": 1.8, "pSTAT5 ratio YT CD25/YT, dilution factor 64, lower table": 2.4, "pSTAT5 ratio YT CD25/YT, dilution factor 64, upper table": 2.9, "pSTAT5 ratio YT CD25/YT, dilution factor 128, lower table": 3.9, "pSTAT5 ratio YT CD25/YT, dilution factor 128, upper table": 4.7},
      {"binder": "FEH (ligand) cytokine: APTSSSTKKTQLQLEHLFLDLEMILNGINNYKNPKLTRMLTFKFYMPKKATELKHLQCLEEELKPLEEVLNLAQSKNFHLRPRDLISNINVIVLELKGSETTFMCEYADETATIVEFLNRWITFCHSIISTLT", "pSTAT5 ratio YT CD25/YT, dilution factor 2, upper table": 0.9, "pSTAT5 ratio YT CD25/YT, dilution factor 4, upper table": 1.2, "pSTAT5 ratio YT CD25/YT, dilution factor 8, upper table": 1.3, "pSTAT5 ratio YT CD25/YT, dilution factor 16, upper table": 1.4, "pSTAT5 ratio YT CD25/YT, dilution factor 32, upper table": 1.7, "pSTAT5 ratio YT CD25/YT, dilution factor 64, upper table": 2.9, "pSTAT5 ratio YT CD25/YT, dilution factor 128, upper table": 4.7},
      {"binder": "SEH (ligand) cytokine: APTSSSTKKTQLQLEHLSLDLEMILNGINNYKNPKLTRMLTFKFYMPKKATELKHLQCLEEELKPLEEVLNLAQSKNFHLRPRDLISNINVIVLELKGSETTFMCEYADETATIVEFLNRWITFCHSIISTLT", "pSTAT5 ratio YT CD25/YT, dilution factor 2, upper table": 1.2, "pSTAT5 ratio YT CD25/YT, dilution factor 4, upper table": 1.5, "pSTAT5 ratio YT CD25/YT, dilution factor 8, upper table": 2.5, "pSTAT5 ratio YT CD25/YT, dilution factor 16, upper table": 4, "pSTAT5 ratio YT CD25/YT, dilution factor 32, upper table": 7.8, "pSTAT5 ratio YT CD25/YT, dilution factor 64, upper table": 11.4, "pSTAT5 ratio YT CD25/YT, dilution factor 128, upper table": 15.1},
      {"binder": "KEH (ligand) cytokine: APTSSSTKKTQLQLEHLKLDLEMILNGINNYKNPKLTRMLTFKFYMPKKATELKHLQCLEEELKPLEEVLNLAQSKNFHLRPRDLISNINVIVLELKGSETTFMCEYADETATIVEFLNRWITFCHSIISTLT", "pSTAT5 ratio YT CD25/YT, dilution factor 2, upper table": 1.1, "pSTAT5 ratio YT CD25/YT, dilution factor 4, upper table": 1, "pSTAT5 ratio YT CD25/YT, dilution factor 8, upper table": 1.1, "pSTAT5 ratio YT CD25/YT, dilution factor 16, upper table": 1.4, "pSTAT5 ratio YT CD25/YT, dilution factor 32, upper table": 1.6, "pSTAT5 ratio YT CD25/YT, dilution factor 64, upper table": 2.3, "pSTAT5 ratio YT CD25/YT, dilution factor 128, upper table": 4},
      {"binder": "VEH (ligand) cytokine: APTSSSTKKTQLQLEHLVLDLEMILNGINNYKNPKLTRMLTFKFYMPKKATELKHLQCLEEELKPLEEVLNLAQSKNFHLRPRDLISNINVIVLELKGSETTFMCEYADETATIVEFLNRWITFCHSIISTLT", "pSTAT5 ratio YT CD25/YT, dilution factor 2, upper table": 1.2, "pSTAT5 ratio YT CD25/YT, dilution factor 4, upper table": 1.6, "pSTAT5 ratio YT CD25/YT, dilution factor 8, upper table": 2.4, "pSTAT5 ratio YT CD25/YT, dilution factor 16, upper table": 3.6, "pSTAT5 ratio YT CD25/YT, dilution factor 32, upper table": 6.3, "pSTAT5 ratio YT CD25/YT, dilution factor 64, upper table": 10.9, "pSTAT5 ratio YT CD25/YT, dilution factor 128, upper table": 14.8},
      {"binder": "IEH (ligand) cytokine: APTSSSTKKTQLQLEHLILDLEMILNGINNYKNPKLTRMLTFKFYMPKKATELKHLQCLEEELKPLEEVLNLAQSKNFHLRPRDLISNINVIVLELKGSETTFMCEYADETATIVEFLNRWITFCHSIISTLT", "pSTAT5 ratio YT CD25/YT, dilution factor 2, upper table": 1.2, "pSTAT5 ratio YT CD25/YT, dilution factor 4, upper table": 1.4, "pSTAT5 ratio YT CD25/YT, dilution factor 8, upper table": 1.6, "pSTAT5 ratio YT CD25/YT, dilution factor 16, upper table": 2.6, "pSTAT5 ratio YT CD25/YT, dilution factor 32, upper table": 4.6, "pSTAT5 ratio YT CD25/YT, dilution factor 64, upper table": 7.2, "pSTAT5 ratio YT CD25/YT, dilution factor 128, upper table": 10.9},
      {"binder": "WEH (ligand) cytokine: APTSSSTKKTQLQLEHLWLDLEMILNGINNYKNPKLTRMLTFKFYMPKKATELKHLQCLEEELKPLEEVLNLAQSKNFHLRPRDLISNINVIVLELKGSETTFMCEYADETATIVEFLNRWITFCHSIISTLT", "pSTAT5 ratio YT CD25/YT, dilution factor 2, upper table": 1.1, "pSTAT5 ratio YT CD25/YT, dilution factor 4, upper table": 1.4, "pSTAT5 ratio YT CD25/YT, dilution factor 8, upper table": 1.5, "pSTAT5 ratio YT CD25/YT, dilution factor 16, upper table": 2.2, "pSTAT5 ratio YT CD25/YT, dilution factor 32, upper table": 3.9, "pSTAT5 ratio YT CD25/YT, dilution factor 64, upper table": 6.4, "pSTAT5 ratio YT CD25/YT, dilution factor 128, upper table": 10},
      {"binder": "HEH (ligand) cytokine: APTSSSTKKTQLQLEHLHLDLEMILNGINNYKNPKLTRMLTFKFYMPKKATELKHLQCLEEELKPLEEVLNLAQSKNFHLRPRDLISNINVIVLELKGSETTFMCEYADETATIVEFLNRWITFCHSIISTLT", "pSTAT5 ratio YT CD25/YT, dilution factor 2, lower table": 1, "pSTAT5 ratio YT CD25/YT, dilution factor 4, lower table": 1.2, "pSTAT5 ratio YT CD25/YT, dilution factor 8, lower table": 1.8, "pSTAT5 ratio YT CD25/YT, dilution factor 16, lower table": 3.1, "pSTAT5 ratio YT CD25/YT, dilution factor 32, lower table": 5.6, "pSTAT5 ratio YT CD25/YT, dilution factor 64, lower table": 8.3, "pSTAT5 ratio YT CD25/YT, dilution factor 128, lower table": 11.8},
      {"binder": "EEH (ligand) cytokine: APTSSSTKKTQLQLEHLELDLEMILNGINNYKNPKLTRMLTFKFYMPKKATELKHLQCLEEELKPLEEVLNLAQSKNFHLRPRDLISNINVIVLELKGSETTFMCEYADETATIVEFLNRWITFCHSIISTLT", "pSTAT5 ratio YT CD25/YT, dilution factor 2, upper table": 1.4, "pSTAT5 ratio YT CD25/YT, dilution factor 4, upper table": 2.3, "pSTAT5 ratio YT CD25/YT, dilution factor 8, upper table": 4.8, "pSTAT5 ratio YT CD25/YT, dilution factor 16, upper table": 8.4, "pSTAT5 ratio YT CD25/YT, dilution factor 32, upper table": 14.7, "pSTAT5 ratio YT CD25/YT, dilution factor 64, upper table": 16.9, "pSTAT5 ratio YT CD25/YT, dilution factor 128, upper table": 17},
      {"binder": "QEH (ligand) cytokine: APTSSSTKKTQLQLEHLQLDLEMILNGINNYKNPKLTRMLTFKFYMPKKATELKHLQCLEEELKPLEEVLNLAQSKNFHLRPRDLISNINVIVLELKGSETTFMCEYADETATIVEFLNRWITFCHSIISTLT", "pSTAT5 ratio YT CD25/YT, dilution factor 2, upper table": 1.1, "pSTAT5 ratio YT CD25/YT, dilution factor 4, upper table": 1.3, "pSTAT5 ratio YT CD25/YT, dilution factor 8, upper table": 1.8, "pSTAT5 ratio YT CD25/YT, dilution factor 16, upper table": 3.1, "pSTAT5 ratio YT CD25/YT, dilution factor 32, upper table": 5.8, "pSTAT5 ratio YT CD25/YT, dilution factor 64, upper table": 8.3, "pSTAT5 ratio YT CD25/YT, dilution factor 128, upper table": 11.7},
      {"binder": "YEH (ligand) cytokine: APTSSSTKKTQLQLEHLYLDLEMILNGINNYKNPKLTRMLTFKFYMPKKATELKHLQCLEEELKPLEEVLNLAQSKNFHLRPRDLISNINVIVLELKGSETTFMCEYADETATIVEFLNRWITFCHSIISTLT", "pSTAT5 ratio YT CD25/YT, dilution factor 2, lower table": 0.8, "pSTAT5 ratio YT CD25/YT, dilution factor 4, lower table": 0.9, "pSTAT5 ratio YT CD25/YT, dilution factor 8, lower table": 1, "pSTAT5 ratio YT CD25/YT, dilution factor 16, lower table": 1.2, "pSTAT5 ratio YT CD25/YT, dilution factor 32, lower table": 1.5, "pSTAT5 ratio YT CD25/YT, dilution factor 64, lower table": 2, "pSTAT5 ratio YT CD25/YT, dilution factor 128, lower table": 3.4}
    ]}
  ]
}
